17 molecules from patent US20130072665A1 (Amgen, published 2013) can be followed below.

Common to all, as to test: domain binding ELISA (coated antibody captures the PCSK9 form; OD650)
(An ELISA detects its analyte on a solid surface through an enzyme-linked reagent.)

Test [1] has as its target T1, PCSK9 V domain (450-692 of SEQ ID NO: 3) (human, UniProt Q8NBP7 450-692).
T1 construct: also called v-domain PCSK9
T1 chain: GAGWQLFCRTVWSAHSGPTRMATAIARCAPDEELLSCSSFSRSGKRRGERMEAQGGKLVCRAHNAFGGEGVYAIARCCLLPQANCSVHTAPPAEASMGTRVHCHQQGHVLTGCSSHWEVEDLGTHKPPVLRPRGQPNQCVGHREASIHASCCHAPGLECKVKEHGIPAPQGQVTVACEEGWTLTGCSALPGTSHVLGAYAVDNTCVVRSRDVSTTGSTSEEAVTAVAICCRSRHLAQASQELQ

In test [2] the target is T2, PCSK9 ProCat (31-449 of SEQ ID NO: 3) (human, UniProt Q8NBP7 27-449).
T2 construct: From PCSK9 449TEV after rTEV cleavage: GAMG-PCSK9 (31-449)-ENLYFQ; Written as one chain; autocatalysis between 152 and 153 splits pro-domain and catalytic domain; also called procat PCSK9; PCSK9 31-449

Test [3] addresses T1, PCSK9 V domain (450-692 of SEQ ID NO: 3).
Test [4] concerns the target T2, PCSK9 ProCat (31-449 of SEQ ID NO: 3). This is another data set of the same source.

Where two headings read alike, the source gives them in different places.

B1: 31B12 (antibody, V domains shown)
VH: QVQLVESGGGVVQPGRSLRLSCAASGFTFSSYGMHWVRQAPGKGLEWVAIIWYDGSNKYYADSVKGRFTISRDNSKNTLYLQMNSLRAEDTAVYYCARRGGLAARPGGMDVWGQGTTVTVSS
VL: SYELTQPPSVSVSPGQTARITCSGDKLGDKYACWYQQKPGQSPVLVIYQNTKWPLGIPERFSGSKSGNTVTLTISGTQAMDEADYYCQAWDSSTVVFGGGTKLTVL
Take B1: the binding result in test [1] is recorded as “no binding”.

B2: 22E2 (antibody, V domains shown)
VH: QVQLVESGGGVVQPGRSLRLSCAASGFTFSSFGMHWVRQAPGKGLEWVALIWNDGSNKYYADSVKGRFTISRDNSKNTLYLQMNSLRAEDTAVYYCARAIAALYYYYGMDVWGQGTTVTVSS
VL: QSVLTQPPSVSAAPGQKVTISCSGSSSNIGNNFVSWYQQLPGTAPKLLIYDYNKRPSGIPDRFSGSKSGTSATLGITGLQTGDEADYYCGTWDSSLSGYVFGTGTRVTVL
Regarding B2, the binding result was “binds” in test [2] and “no binding” in test [3].

B3: 13B5 (antibody, V domains shown)
VH: EVQLLESGGGLVQPGGSLRLSCAASGFTFSSYAMSWVRQAPGKGLEWVSTISGSGGRTYYADSVKGRFTISRDNSKNTLYLQMNSLRAEDTAVYYCAKEVGSPFDYWGQGTLVTVSS
VL: QSVLTQPPSVSAAPGQKVTISCSGSNSNIGNNYVSWYQQLPGTAPKLLIYDNNKRPSGIPDRFSGSNSGTSATLGITGLQTGDEADYYCGTWDSSLSAVVFGGGTKLTVL
On to B3, for which the binding result in test [4] is “no binding”.

B4: 27A6 (antibody, V domains shown)
VH: QVHLVESGGGVVQPGRSLRLSCAASGFTFNSFGMHWVRQAPGKGLEWVALIWSDGSDKYYADSVKGRFTISRDNSKNTLYLQMNSLRAEDTAVYYCARAIAALYYYYGMDVWGQGTTVTVSS
VL: QSVLTQPPSVSAAPGQKVTISCSGSSSNIGNNFVSWYQQFPGTAPKLLIYDYNKRPSGIPDRFSGSKSGTSATLGITGLQTGDEADYYCGTWDSSLSSYVFGTGTRVTVL
As for B4, the binding result in test [2] is “binds”; in test [3] it was “no binding”.

B5: 31G11 (antibody, V domains shown)
VH: QVQLVESGGGVVQPGRSLRLSCAASGFTFRSYGMHWVRQAPGKGLEWVALIWHDGSNTYYVDSVKGRFTISRDNSKNTLYLQMNSLRAEDTAVYYCARGIAVAYYYYGMDVWGQGTTVTVSS
VL: QSVLTQPPSVSAAPGQKVTISCSGSSSNIGNNFVSWYQQLPGTAPKLLIYDSNKRPSGIPDRFSGSKSGTSATLDITGLQTGDEADYYCGTWDSSLSAYVFGTGTKVTVL
B5: the binding result in test [3] was “no binding”.

B6: 28B12 (antibody, V domains shown)
VH: QVQLVESGGGVVQPGRSLRLSCAASGFTFSSFGMHWVRQAPGKGLEWVALIWNDGSNKYYADSVKGRFTISRDNSKNTLYLQMNSLRAEDTAVYYCARAIAALYYYYGMDVWGHGTTVTVSS
VL: QSVLTQPPSVSAAPGQKVTISCSGSSSNIGNNFVSWYQQLPGTAPKLLIYDYNKRPSGIPDRFSGSKSGTSATLGITGLQTGDEADYYCGTWDSSLSGYVFGTGTRVTVL
For the molecule B6, the binding result in test [2] is reported as “binds”; in test [3] it was “no binding”.

B7: 28D6 (antibody, V domains shown)
VH: QVQLVESGGGVVQPGRSLRLSCAASGFTFSSFGMHWVRQAPGKGLEWVALIWNDGSNKYYADSVKGRFTISRDNSKNTLYLQMNSLRAEDTAVYYCARAIAALYYYYGMDVWGQGTTVTVSS
VL: QSVLTQPPTVSAAPGQKVTISCSGSSSNIGNNFVSWYQQLPGTAPKLLIYDYNKRPSGIPDRFSGSKSGTSATLGITGLQTGDEADYYCGTWDSSLSGYVFGTGTRVTVL
Consider B7, for which the binding result was “binds” in test [2] and “no binding” in test [3].

B8: 16F12 (antibody, V domains shown)
VH: QVHLVESGGGVVQPGRSLRLSCAASGFTFNSFGMHWVRQAPGKGLEWVALIWSDGSDEYYADSVKGRFTISRDNSKNTLYLQMNSLRAEDTAVYYCARAIAALYYYYGMDVWGQGTTVTVSS
VL: QSVLTQPPSVSAAPGQKVTISCSGSSSNIGNNFVSWYQQLPGTAPKLLIYDYNKRPSGIPDRFSGSKSGTSATLGITGLQTGDEADYYCGTWDSSLSAYVFGTGTRVTVL
notes: lambda light chain
Consider B8, for which the binding result in test [3] is recorded as “no binding”.

B9: 30B9 (antibody, V domains shown)
VH: QVQLVQSGAEVKKPGASVKVSCKASGYPLTSYGISWVRQAPGQGLEWMGWISAYNGNTNYAQKVQGRVTMTTDTSTSTVYMELRSLRSDDTAVYYCARGYGMDVWGQGTTVTVSS
VL: QSALTQPASVSGSPGQSITISCTGTSSDVGGYNSVSWYQQHPGKPPKLMIYEVSNRPSGVSNRFSGSKSGNTASLTISGLQAEDEADYFCSSYTSTSMVFGGGTKLTVL
B9: the binding result in test [4] is listed as “binds”; in test [1], “no binding”.

B10: 26E10.1 (antibody, V domains shown)
VH: QVQLVQSGAEVKKPGASVKVSCKASGYTLTSYGISWVRQAPGQGLEWMGWVSFYNGNTNYAQKLQGRGTMTTDPSTSTAYMELRSLRSDDTAVYYCARGYGMDVWGQGTTVTVSS
VL: QSALTQPASVSGSPGQSITISCTGTSSDVGGYNSVSWYQQHPGKAPKLMIYEVSNRPSGVFNRFSGSKSGNTASLTISGLQAEDEADYYCNSYTSTSMVFGGGTKLTVL
notes: subclone
Consider B10, for which the binding result in test [1] is “no binding”.

B11: 17C2.1 (antibody, V domains shown)
VH: QVQLVQSGAEVKKPGASVKVSCKASGYSFTSYGISWVRQAPGQGLEWMGWVSAYNGNTNYAQKFQGRVTMTTDTSTSTAYMELRSLRSDDTAVYYCARGYVMDVWGQGTTVTVSS
VL: QSALTQPASVFGSPGQSITISCTGTSSDVGAYNSVSWYQQHPGKAPKRMIYEVSNRPSGVSNRFSGSKSGNTASLTISGLQAEDEADYYCSSYTSTNMVFGGGTKLTVL
notes: subclone
With B11, the binding result in test [1] is on record as “no binding”.

B12: 3B6 (antibody, V domains shown)
VH: QVQLVQSGAEVKKPGASVKVSCKASGYTFTSYGISWVRQAPGQGLEWMGWISTYNGNTNYAQKVQGRVTMTTDTSTSTAYMELRSLRSDDTAVYYCARGYTRDYWGQGTLVTVSS
VL: QPVLTQPLFASASLGASVTLTCTLSSGYSSYEVDWYQQRPGKGPRFVMRVDTGGIVGSKGEGIPDRFSVLGSGLNRYLTIKNIQEEDESDYHCGADHGSGTNFVVVFGGGTKLTVL
As to B12, the results for the binding result in test [2] and in test [3] were “binds” and “no binding”, respectively.

B13: 20D10 (antibody, V domains shown)
VH: QIQLVQSGAEVKKPGASVKVSCKASGYPLTSYGISWVRQAPGQGLEWMGWISAYNGNTNYAQKVQGSVTMTTDTSTSTVYMELRSLRSDDTAVYYCARGYGMDVWGQGTTVTVSS
VL: QSALTQPASVSGSPGQSITISCTGTSSDVGGYNSVSWYQQYPGKPPKLKIYEVSNRPSGVSNRFSGSKSGNTASLTISGLQAEDEADYFCSSYTSTSMVFGGGTKLTVL
B13: the binding result is given as “binds” in test [2] and “no binding” in test [3].

B14: 19H9 (antibody, V domains shown)
VH: QVQLVQSGAEVKKPGASVKVSCKASGYALTSYGISWVRQAPGQGLEWMGWISAYNGNTNYAQKVQGRVTMTTDTSTSTVYMELRSLRSDDTAVYYCARGYGMDVWGQGTTVTVSS
VL: QSALTQPASVSGSPGQSITISCTGTNSDVGGYNSVSWYQQHPGKPPKLMIYEVSNRPSGISNRFSGSKSGNTASLTISGLQAEDEADYFCSSYTSTSMVFGGGTKLTVL
notes: also called 19H9.2
Consider B14, for which the binding result was “binds” in test [4] and “no binding” in test [1].

B15: 27E7 (antibody, V domains shown)
VH: QVQLVQSGAEVKKPGASLKVSCKASGYSLTSYGISWVRQAPGQGLEWMGWISAYNGNTNYAQKVQGRVTMTTDTSTSTVYMEVRSLRSDDTAVYYCARGYGMDVWGQGTTVTVSS
VL: QSALTQPASVSGSPGQSITISCTGTSSDVGGYNSVSWYQQHPGKPPKLMIYEVSNRPSGVSNRFSGSKSGNTASLTISGLQAEDEADYFCSSYTSTSMVFGGGTKLTVL
Take B15: the binding result in test [4] is reported as “binds”; in test [1], “no binding”.

B16: 23G1 (antibody, V domains shown)
VH: QVQLVQSGAEVKKPGASVKVSCKASGYTLTSYGISWVRQAPGQGLEWMGWVSFYNGNTNYAQKLQGRGTMTTDPSTSTAYMELRSLRSDDTAVYYCARGYGMDVWGQGTTVTVSS
VL: QSALTQPASVSGSPGQSITISCTGTSSDVGGYNSVSWYQQHPGKAPKLMIYEVTNRPSGVSNRFSGSKSGNTASLTISGLQAEDEADYYCNSYTSTSMVFGGGTKLTVL
B16: the binding result in test [2] is “binds”; in test [3] it was “no binding”.

B17: 31D1 (antibody, V domains shown)
VH: QIQLVQSGAEVKKPGASVKVSCKASGYTLTSYGISWVRQAPGQGLEWMGWISFYNGNTNYAQKVQGRVTMTTDTSTSTVYMELRSLRSDDTAVYFCARGYGMDVWGQGTTVTVSS
VL: QSALTQPASVSGSPGQSITISCTGTSSDVGGYNSVSWYQQHPGKPPKLMIYEVSNRPSGVSNRFSGSKSGNTASLTISGLQAEDEADYFCSSYTSTSMVFGGGTKLAVL
Take B17: the binding result in test [2] is listed as “binds”; in test [3], “no binding”.
